Assays:
crystal structure = biological target: the molecule itself; assay: crystal structure
[1] = biological target: T1, RelE1 toxin of Mycobacterium tuberculosis (crystallization construct, expressed as His-SUMO–RelE1) (Mycobacterium tuberculosis, UniProt O50461 1-97); assay: crystal structure; settings: both partners purified
T1 sequence: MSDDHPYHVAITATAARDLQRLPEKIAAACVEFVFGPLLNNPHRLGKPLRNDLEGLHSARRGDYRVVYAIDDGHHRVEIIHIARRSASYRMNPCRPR

B1: RelB1 antitoxin of Mycobacterium tuberculosis (crystallization construct) (natural protein)
chain: MAVVPLGEVRNRLSEYVAEVELTHERITITRHGHPAAVLISADDLASIEETLEVLRTPGASEAIREGLADVAAGRFVSNDEIRNRYTAR
Crystal structure
  binding result: binds
[1]
  binding result: binds
